# Laboratory results: publication PMC9482650, “Quantitative fragmentomics allow affinity mapping of interactomes” (Nature Communications, 2022)
# T1: APBA1_2, Q02410
# T1 sequence (Q02410 742-832, limits assumed, looked up): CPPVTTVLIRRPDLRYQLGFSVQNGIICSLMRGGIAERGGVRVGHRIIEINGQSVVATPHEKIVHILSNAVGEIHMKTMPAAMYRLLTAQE
# T2: CARD11, Q9BXL7
# T2 sequence (Q9BXL7 662-765, limits assumed, looked up): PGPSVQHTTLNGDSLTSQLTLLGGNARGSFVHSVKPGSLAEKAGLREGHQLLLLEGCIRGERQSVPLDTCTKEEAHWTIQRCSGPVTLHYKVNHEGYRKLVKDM
# T3: LRRC7, Q96NW7
# T3 sequence (Q96NW7 1440-1537, limits assumed, looked up): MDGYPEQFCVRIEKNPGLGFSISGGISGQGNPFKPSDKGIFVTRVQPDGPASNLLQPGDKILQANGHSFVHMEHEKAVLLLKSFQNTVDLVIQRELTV
# T4: MPP6, Q9NZW5
# T4 sequence (Q9NZW5 125-219, limits assumed, looked up): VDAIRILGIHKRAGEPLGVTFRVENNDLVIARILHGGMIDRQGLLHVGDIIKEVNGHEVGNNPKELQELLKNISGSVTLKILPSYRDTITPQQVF
# T5: NHERF3_1, Q5T2W1
# T5 sequence (Q5T2W1 4-100, limits assumed, looked up): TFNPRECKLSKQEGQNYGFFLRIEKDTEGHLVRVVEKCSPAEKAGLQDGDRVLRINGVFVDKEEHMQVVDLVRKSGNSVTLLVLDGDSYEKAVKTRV
# T6: NHERF3_3, Q5T2W1
# T6 sequence (Q5T2W1 238-333, limits assumed, looked up): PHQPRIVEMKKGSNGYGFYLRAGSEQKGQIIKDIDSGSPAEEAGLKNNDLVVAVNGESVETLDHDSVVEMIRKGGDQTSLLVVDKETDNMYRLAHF
# T7: PARD3B_1, Q8TEW8
# T7 sequence (Q8TEW8 196-299, limits assumed, looked up): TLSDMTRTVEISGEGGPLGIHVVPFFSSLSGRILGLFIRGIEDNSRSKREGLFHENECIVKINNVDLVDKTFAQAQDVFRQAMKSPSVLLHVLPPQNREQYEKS
# T8: SNTG1, Q9NSN8
# T8 sequence (Q9NSN8 52-150, limits assumed, looked up): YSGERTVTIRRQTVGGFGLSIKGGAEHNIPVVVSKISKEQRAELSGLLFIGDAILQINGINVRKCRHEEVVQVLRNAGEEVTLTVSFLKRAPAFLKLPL
# T9: SNTG2, Q9NY99
# T9 sequence (Q9NY99 68-166, limits assumed, looked up): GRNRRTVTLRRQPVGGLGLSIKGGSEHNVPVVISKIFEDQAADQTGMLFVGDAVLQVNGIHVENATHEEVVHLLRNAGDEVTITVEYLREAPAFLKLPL
# Target: AHNAK1, Q09666
# Sequence (Q09666 4-100): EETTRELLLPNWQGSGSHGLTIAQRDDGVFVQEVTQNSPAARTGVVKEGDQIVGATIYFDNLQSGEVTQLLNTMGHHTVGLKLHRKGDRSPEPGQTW
# Test: holdup assay
# Set-up: key: below the threshold = too weak to quantify, mostly under pKd 3.1 to 4
# Details: plain residues with an end cap or a label only (N-terminal biotin on a linker: ado-ado)
row,pKd,Binder
1,below the threshold,"KSRPENGTVC [TMEM178B, H3BS89]"

# Target: T1, APBA1_2, Q02410
# Test: holdup assay
# Set-up: key: below the threshold = too weak to quantify, mostly under pKd 3.1 to 4
# Details: plain residues with an end cap or a label only (N-terminal biotin on a linker: ado-ado)
row,pKd,Binder
1,below the threshold,"KSRPENGTVC [TMEM178B, H3BS89]"

# Target: T2, CARD11, Q9BXL7
# Test: holdup assay
# Set-up: key: below the threshold = too weak to quantify, mostly under pKd 3.1 to 4
# Details: plain residues with an end cap or a label only (N-terminal biotin on a linker: ado-ado)
row,pKd,Binder
1,below the threshold,"KSRPENGTVC [TMEM178B, H3BS89]"

# Target: DLG1_3, Q12959
# Sequence (Q12959 457-571): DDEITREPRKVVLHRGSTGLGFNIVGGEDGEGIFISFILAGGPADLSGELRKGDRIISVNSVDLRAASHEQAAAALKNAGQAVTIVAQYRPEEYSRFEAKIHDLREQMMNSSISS
# Test: holdup assay
# Set-up: key: below the threshold = too weak to quantify, mostly under pKd 3.1 to 4
# Details: plain residues with an end cap or a label only (N-terminal biotin on a linker: ado-ado)
row,pKd,Binder
1,below the threshold,"KSRPENGTVC [TMEM178B, H3BS89]"

# Target: DLG2_2, Q15700
# Sequence (Q15700 189-283): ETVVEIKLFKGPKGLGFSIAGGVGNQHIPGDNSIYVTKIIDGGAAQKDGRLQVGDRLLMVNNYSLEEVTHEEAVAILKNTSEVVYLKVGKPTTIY
# Test: holdup assay
# Set-up: key: below the threshold = too weak to quantify, mostly under pKd 3.1 to 4
# Details: plain residues with an end cap or a label only (N-terminal biotin on a linker: ado-ado)
row,pKd,Binder
1,below the threshold,"KSRPENGTVC [TMEM178B, H3BS89]"

# Target: DLG5_1, Q8TDM6
# Sequence (Q8TDM6 617-713): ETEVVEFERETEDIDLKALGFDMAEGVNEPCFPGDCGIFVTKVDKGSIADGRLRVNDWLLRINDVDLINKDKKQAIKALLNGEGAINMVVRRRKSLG
# Test: holdup assay
# Set-up: key: below the threshold = too weak to quantify, mostly under pKd 3.1 to 4
# Details: plain residues with an end cap or a label only (N-terminal biotin on a linker: ado-ado)
row,pKd,Binder
1,below the threshold,"KSRPENGTVC [TMEM178B, H3BS89]"

# Target: GRASP, Q7Z6J2
# Sequence (Q7Z6J2 96-193): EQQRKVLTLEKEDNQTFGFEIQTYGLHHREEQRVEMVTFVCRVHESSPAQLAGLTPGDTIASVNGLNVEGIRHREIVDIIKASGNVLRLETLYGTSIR
# Test: holdup assay
# Set-up: key: below the threshold = too weak to quantify, mostly under pKd 3.1 to 4
# Details: plain residues with an end cap or a label only (N-terminal biotin on a linker: ado-ado)
row,pKd,Binder
1,below the threshold,"KSRPENGTVC [TMEM178B, H3BS89]"

# Target: GRIP2_6, Q9C0E4
# Sequence (Q9C0E4 648-740): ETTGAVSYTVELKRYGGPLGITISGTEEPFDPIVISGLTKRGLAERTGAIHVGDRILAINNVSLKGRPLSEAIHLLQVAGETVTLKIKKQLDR
# Test: holdup assay
# Set-up: key: below the threshold = too weak to quantify, mostly under pKd 3.1 to 4
# Details: plain residues with an end cap or a label only (N-terminal biotin on a linker: ado-ado)
row,pKd,Binder
1,below the threshold,"KSRPENGTVC [TMEM178B, H3BS89]"

# Target: IL16_1, Q14005
# Sequence (Q14005 210-306): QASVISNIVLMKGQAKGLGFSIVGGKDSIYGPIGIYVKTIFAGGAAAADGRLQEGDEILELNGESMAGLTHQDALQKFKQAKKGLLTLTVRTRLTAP
# Test: holdup assay
# Set-up: key: below the threshold = too weak to quantify, mostly under pKd 3.1 to 4
# Details: plain residues with an end cap or a label only (N-terminal biotin on a linker: ado-ado)
row,pKd,Binder
1,below the threshold,"KSRPENGTVC [TMEM178B, H3BS89]"

# Target: IL16_4, Q14005
# Sequence (Q14005 1229-1329): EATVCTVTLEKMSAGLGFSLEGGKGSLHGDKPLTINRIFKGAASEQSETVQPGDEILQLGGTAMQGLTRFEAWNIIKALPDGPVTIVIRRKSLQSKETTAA
# Test: holdup assay
# Set-up: key: below the threshold = too weak to quantify, mostly under pKd 3.1 to 4
# Details: plain residues with an end cap or a label only (N-terminal biotin on a linker: ado-ado)
row,pKd,Binder
1,below the threshold,"KSRPENGTVC [TMEM178B, H3BS89]"

# Target: Inadl_3, Q8NI35
# Sequence (Q8NI35 359-469): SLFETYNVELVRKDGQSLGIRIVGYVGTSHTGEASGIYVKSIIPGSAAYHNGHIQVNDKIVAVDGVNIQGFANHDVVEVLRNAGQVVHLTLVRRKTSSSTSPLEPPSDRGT
# Test: holdup assay
# Set-up: key: below the threshold = too weak to quantify, mostly under pKd 3.1 to 4
# Details: plain residues with an end cap or a label only (N-terminal biotin on a linker: ado-ado)
row,pKd,Binder
1,below the threshold,"KSRPENGTVC [TMEM178B, H3BS89]"

# Target: LDB3, O75112
# Sequence (O75112 1-94): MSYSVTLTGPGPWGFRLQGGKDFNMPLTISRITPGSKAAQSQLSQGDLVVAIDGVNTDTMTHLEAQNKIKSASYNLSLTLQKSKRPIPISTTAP
# Test: holdup assay
# Set-up: key: below the threshold = too weak to quantify, mostly under pKd 3.1 to 4
# Details: plain residues with an end cap or a label only (N-terminal biotin on a linker: ado-ado)
row,pKd,Binder
1,below the threshold,"KSRPENGTVC [TMEM178B, H3BS89]"

# Target: LIMK2, P53671
# Sequence (P53671 143-248): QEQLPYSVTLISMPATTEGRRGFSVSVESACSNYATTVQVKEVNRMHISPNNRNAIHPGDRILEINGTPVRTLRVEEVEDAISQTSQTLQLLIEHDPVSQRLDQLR
# Test: holdup assay
# Set-up: key: below the threshold = too weak to quantify, mostly under pKd 3.1 to 4
# Details: plain residues with an end cap or a label only (N-terminal biotin on a linker: ado-ado)
row,pKd,Binder
1,below the threshold,"KSRPENGTVC [TMEM178B, H3BS89]"

# Target: LNX1_1, Q8TBB1
# Sequence (Q8TBB1 261-371): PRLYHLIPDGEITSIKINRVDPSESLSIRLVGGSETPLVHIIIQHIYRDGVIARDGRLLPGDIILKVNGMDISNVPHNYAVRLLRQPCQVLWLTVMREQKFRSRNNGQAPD
# Test: holdup assay
# Set-up: key: below the threshold = too weak to quantify, mostly under pKd 3.1 to 4
# Details: plain residues with an end cap or a label only (N-terminal biotin on a linker: ado-ado)
row,pKd,Binder
1,below the threshold,"KSRPENGTVC [TMEM178B, H3BS89]"

# Target: T3, LRRC7, Q96NW7
# Test: holdup assay
# Set-up: key: below the threshold = too weak to quantify, mostly under pKd 3.1 to 4
# Details: plain residues with an end cap or a label only (N-terminal biotin on a linker: ado-ado)
row,pKd,Binder
1,below the threshold,"KSRPENGTVC [TMEM178B, H3BS89]"

# Target: MAGI2_3, Q86UL8
# Sequence (Q86UL8 600-682): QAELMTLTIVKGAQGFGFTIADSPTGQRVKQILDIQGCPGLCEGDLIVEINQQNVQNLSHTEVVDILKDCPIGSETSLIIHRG
# Test: holdup assay
# Set-up: key: below the threshold = too weak to quantify, mostly under pKd 3.1 to 4
# Details: plain residues with an end cap or a label only (N-terminal biotin on a linker: ado-ado)
row,pKd,Binder
1,below the threshold,"KSRPENGTVC [TMEM178B, H3BS89]"

# Target: T4, MPP6, Q9NZW5
# Test: holdup assay
# Set-up: key: below the threshold = too weak to quantify, mostly under pKd 3.1 to 4
# Details: plain residues with an end cap or a label only (N-terminal biotin on a linker: ado-ado)
row,pKd,Binder
1,below the threshold,"KSRPENGTVC [TMEM178B, H3BS89]"

# Target: T5, NHERF3_1, Q5T2W1
# Test: holdup assay
# Set-up: key: below the threshold = too weak to quantify, mostly under pKd 3.1 to 4
# Details: plain residues with an end cap or a label only (N-terminal biotin on a linker: ado-ado)
row,pKd,Binder
1,3.62,"KSRPENGTVC [TMEM178B, H3BS89]"

# Target: T6, NHERF3_3, Q5T2W1
# Test: holdup assay
# Set-up: key: below the threshold = too weak to quantify, mostly under pKd 3.1 to 4
# Details: plain residues with an end cap or a label only (N-terminal biotin on a linker: ado-ado)
row,pKd,Binder
1,below the threshold,"KSRPENGTVC [TMEM178B, H3BS89]"

# Target: NHERF4_4, Q86UT5
# Sequence (Q86UT5 464-550): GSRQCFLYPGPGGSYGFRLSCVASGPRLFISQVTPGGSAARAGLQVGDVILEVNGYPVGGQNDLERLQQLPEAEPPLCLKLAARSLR
# Test: holdup assay
# Set-up: key: below the threshold = too weak to quantify, mostly under pKd 3.1 to 4
# Details: plain residues with an end cap or a label only (N-terminal biotin on a linker: ado-ado)
row,pKd,Binder
1,below the threshold,"KSRPENGTVC [TMEM178B, H3BS89]"

# Target: T7, PARD3B_1, Q8TEW8
# Test: holdup assay
# Set-up: key: below the threshold = too weak to quantify, mostly under pKd 3.1 to 4
# Details: plain residues with an end cap or a label only (N-terminal biotin on a linker: ado-ado)
row,pKd,Binder
1,below the threshold,"KSRPENGTVC [TMEM178B, H3BS89]"

# Target: PICK1, Q9NRD5
# Sequence (Q9NRD5 17-115): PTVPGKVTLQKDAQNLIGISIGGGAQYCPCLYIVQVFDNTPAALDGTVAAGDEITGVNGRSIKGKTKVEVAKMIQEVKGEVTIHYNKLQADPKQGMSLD
# Test: holdup assay
# Set-up: key: below the threshold = too weak to quantify, mostly under pKd 3.1 to 4
# Details: plain residues with an end cap or a label only (N-terminal biotin on a linker: ado-ado)
row,pKd,Binder
1,below the threshold,"KSRPENGTVC [TMEM178B, H3BS89]"

# Target: PTPN3, P26045
# Sequence (P26045 505-587): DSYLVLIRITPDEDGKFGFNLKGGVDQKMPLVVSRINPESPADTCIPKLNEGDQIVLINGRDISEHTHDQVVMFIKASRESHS
# Test: holdup assay
# Set-up: key: below the threshold = too weak to quantify, mostly under pKd 3.1 to 4
# Details: plain residues with an end cap or a label only (N-terminal biotin on a linker: ado-ado)
row,pKd,Binder
1,3.77,"KSRPENGTVC [TMEM178B, H3BS89]"

# Target: SCRIB_1, Q14160
# Sequence (Q14160 718-814): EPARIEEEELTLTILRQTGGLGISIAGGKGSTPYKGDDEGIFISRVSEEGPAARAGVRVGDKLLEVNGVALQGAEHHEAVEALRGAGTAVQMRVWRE
# Test: holdup assay
# Set-up: key: below the threshold = too weak to quantify, mostly under pKd 3.1 to 4
# Details: plain residues with an end cap or a label only (N-terminal biotin on a linker: ado-ado)
row,pKd,Binder
1,3.78,"KSRPENGTVC [TMEM178B, H3BS89]"

# Target: SCRIB_3, Q14160
# Sequence (Q14160 999-1103): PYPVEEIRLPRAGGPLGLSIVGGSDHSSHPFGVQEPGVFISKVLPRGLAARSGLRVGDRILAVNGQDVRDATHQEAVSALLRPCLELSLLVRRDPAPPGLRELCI
# Test: holdup assay
# Set-up: key: below the threshold = too weak to quantify, mostly under pKd 3.1 to 4
# Details: plain residues with an end cap or a label only (N-terminal biotin on a linker: ado-ado)
row,pKd,Binder
1,3.66,"KSRPENGTVC [TMEM178B, H3BS89]"

# Target: T8, SNTG1, Q9NSN8
# Test: holdup assay
# Set-up: key: below the threshold = too weak to quantify, mostly under pKd 3.1 to 4
# Details: plain residues with an end cap or a label only (N-terminal biotin on a linker: ado-ado)
row,pKd,Binder
1,below the threshold,"KSRPENGTVC [TMEM178B, H3BS89]"

# Target: T9, SNTG2, Q9NY99
# Test: holdup assay
# Set-up: key: below the threshold = too weak to quantify, mostly under pKd 3.1 to 4
# Details: plain residues with an end cap or a label only (N-terminal biotin on a linker: ado-ado)
row,pKd,Binder
1,below the threshold,"KSRPENGTVC [TMEM178B, H3BS89]"

# Target: TJP1_3, Q07157
# Sequence (Q07157 416-512): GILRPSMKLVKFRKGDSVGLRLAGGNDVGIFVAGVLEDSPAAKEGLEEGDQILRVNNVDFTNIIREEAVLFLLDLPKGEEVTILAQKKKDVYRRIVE
# Test: holdup assay
# Set-up: key: below the threshold = too weak to quantify, mostly under pKd 3.1 to 4
# Details: plain residues with an end cap or a label only (N-terminal biotin on a linker: ado-ado)
row,pKd,Binder
1,below the threshold,"KSRPENGTVC [TMEM178B, H3BS89]"
